Laboratory results published in patent US20200368361A1 (Regeneron, published 2020).

T1: human MSR1 with a C-terminal Myc tag expressed on HEK293.Myc.hMSR1 cells (human, UniProt P21757 1-451)
T1 sequence (looked up): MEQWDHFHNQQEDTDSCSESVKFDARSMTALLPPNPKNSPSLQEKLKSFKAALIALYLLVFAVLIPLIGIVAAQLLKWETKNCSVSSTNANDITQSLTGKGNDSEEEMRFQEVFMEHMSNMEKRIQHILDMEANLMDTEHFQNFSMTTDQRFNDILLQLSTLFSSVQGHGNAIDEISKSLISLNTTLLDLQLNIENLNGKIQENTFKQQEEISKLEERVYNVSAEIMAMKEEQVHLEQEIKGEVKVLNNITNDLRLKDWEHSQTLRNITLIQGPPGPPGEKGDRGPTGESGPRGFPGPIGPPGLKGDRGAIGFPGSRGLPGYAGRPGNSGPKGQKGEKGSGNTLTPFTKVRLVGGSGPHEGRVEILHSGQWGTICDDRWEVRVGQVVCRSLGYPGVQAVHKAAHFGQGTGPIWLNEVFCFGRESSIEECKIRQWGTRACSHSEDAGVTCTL


Target: T1, human MSR1 with a C-terminal Myc tag …
Experiment: cell-based or functional assay

Binder	IC50 of inhibition of Dil-Acetylated LDL uptake [nM]	IC50 of inhibition of Dil-Oxidized LDL uptake [nM]	% Inhibition of Dil-Acetylated LDL uptake [%]	% Inhibition of Dil-Oxidized LDL uptake [%]
H1H27762P2-N297Q (antibody, V domains shown) VH: QVQLVQSGAEVKKPGSSVKVSCKASGGTFSRYDISWVRQAPGQGLEWMGGIIPIFGTSNYAQKFQGRVTITTDESTSTVYMELSSLRSEDTAVYYCARGGRYGWFDPWGQGTLVTVSS VL: not shown	2.9	4		
H1H27761P2-N297Q (antibody, V domains shown) VH: EVQLVESGGDLVQPGGSLRLSCSASGFTFNIYAMSWVRQAPGKGLEWVSGISGSGGSTYYADSVKGRFTISRDNSKNTLYFQMNSLRVEDTAVYYCAKKISSSSYYYYAMDVWGQGTTVTVSS VL: not shown	> 100	9.5		
H1H27739P-N297Q (antibody, V domains shown) VH: EVQLVESGGGLVQPGGSLRLSCTASGFTFSSYAMSWVRQAPGKGLEWVSAISGTGSSTYFTDSVKGRFAISRDNSKNTLYLQMNSLRAEDTAVYYCAKDGEWLSTVTLFDYWGQGTLVTVSS VL: EIVMTQSPATLSVSPGERATLSCRASQSVSSNLAWYQQKPGQAPRLLIYGASTRATGIPARFSGSGSGTDFTLTISSLQSEDFALYYCQQYFIWPPHPTFGPGTKVDIKR		> 100		
H1H27759P2-N297Q (antibody, V domains shown) VH: EVQLVESGGGFVQPGGSLRLSCAASGFTFSSYAMSWVRQAPGKGLEWVSAISGTGSNTYYADSVKGRFTISRDNSKNTLYLQMNSLRAEDTAVYYCAKDRVTTVTYYFDYWGQGTLVTVSS VL: not shown	> 100	> 10		
H1H27751P-N297Q (antibody, V domains shown) VH: EVQLVESGGGLVQPGGSLRLSCAASGFTFSNYAMHWVRQAPGKGLEYVSAISSNGGSTYYADSVKGRITISRDNSKNTLYLQMGSLRAEDMAVYYCARGRPYYYYFGMDVWGQGTTVTVSS VL: not shown	1.6	2.9		
H1H21234N-N297Q (antibody, V domains shown) VH: QVQLQESGPGLVKPSETLSLTCTVTGGSISRNYWSWIRQPPGKGLEWIGYIYYSGSIDYNPSLKSRVTISVDTSKNQFSLKLSSMTAADTAVYYCARDRWNWKYGMDVWGQGTTVIVSS VL: EIVLTQSPGTLSLSPGERATLSCRASQTVRNNYLAWYHQKPGQAPRLLIYGASSRATGIPDRFSGSGSGTDFTLTISRLEPEDFTVYYCHQYGNSPWTFGQGTKMEIKR	1.3	6.1		
H2aM21227N (antibody, V domains shown) VH: QVQLVQSGAEVKKPGASVKVSCKVSGYTLTELSIHWVRQVPGKGLEWMGGFDPEEGETIFAQEFRDRVTLTEDTSPDTAYMELSSLKSEDAAVYYCTTPRYCNNGICYDYWGQGTLVTVSS VL: DIQMTQSPSSLSASVGDRVTITCRASQSISNYLNWYQQKPGKAPKLLIYTASSLQSGVPSRFSGSGSGTDFTLTISSLQTEDFATYYCQQSYSNFPITFGQGTRLEIKR	3.7	3.1		
H2aM25700N (antibody, V domains shown) VH: QVQLVQSGSEVKKPGASVKVSCKVSGYTLTELSIHWVRQAPGKGLEWMGGFDPEDGETIYAQKFRGRVTMTEDISPDTAYMELSSLRSEDTAVYYCATPRYCNNGICYDYWGQGTLVTVSS VL: DIQMTQSPSSLSASIGDRVTITCRASQSISSYLNWYQQKPGKAPMLLIYAASSLQSGVPSRFSGSGSGTDFTLTISSLQTEDFATYYCQQSYSTPPITFGQGTRLEIKR	2.4		79	91
H2aM25685N (antibody, V domains shown) VH: QVQLVQSGAEVREPGASVKLSCKVSGYTLTELSIHWVRQAPGKGLEWMGGFDPEEGETVYAQKFRGRVTLTEDISPDTAYMELSSLTSEDTAVYYCATPRYCNNGICYDYWGQGTLITVSS VL: not shown	> 100	> 100	22	43

Results, then the binder that gave them:

IC50 of inhibition of Dil-Acetylated LDL uptake [nM]	IC50 of inhibition of Dil-Oxidized LDL uptake [nM]	% Inhibition of Dil-Acetylated LDL uptake [%]	% Inhibition of Dil-Oxidized LDL uptake [%]	Binder
	> 100			H2aM21229N (antibody, V domains shown) VH: EVQLVESGGGLVKPGGSLRLSCAASGFTFSRYSMNWVRQAPGKGLEWVSSISSSSSYIYYGDTVKGRFTISRDNAKKSLYLQMNSLRAEDTAVYYCVRDRGQLVLYFDYWGQGTLVTVSS VL: DIQMTQSPASLSTSIRDRVTITCRASLSISSFLNWFQQRPGKAPKLLIYVASNLQSGVPSRFSDSGSGTDFTLTISSLQPEDFATYYCQQNYSTPPITFGQGTRLEIK
3.5	3.7			H1H27766P2-N297Q (antibody, V domains shown) VH: EVQLVESGGGLVQPGGSLRLSCAASGFTFSSFAMSWVRQAPGKELEWVSSISGRGGSTYYADSVRGRFTISRDNSKITLYLQMNSLRAEDTAVYYCAKDIVFRYTSSAYWYFDLWGRGTLVTVSS VL: not shown
> 100	> 100			H1H27747P-N297Q (antibody, V domains shown) VH: QVQLVESGGAVVQPGRSLRLSCAASGFTFSYYGMHWVRQAPGKGLEWVAVISYDGSKKYYADSVKGRFTISRDNSKNTLYLQMNSLRAEDTAVYYCAKDLTVDFYYGMDVWGQGTTVTVSS VL: DIQMTQSPSSVSASVGDRVTITCRASQGISSWLAWYQQKPGKAPKLLIYATSSLQSGAPSRFSGSGSGTDFTLTISSLQPEDFATYFCQQANSFPYTFGQGTKLEIKR
1.8	4.6			H1H27754P-N297Q (antibody, V domains shown) VH: EVQLVESGGGLVQPGGSLRLSCAASGFTFRTYAMTWVRQAPGKGLDWVSAITGDGGNTYYADSVKGRFTISRDNSKNTLYLQMNSLRAEDTAIYYCAKDQRFSFALYYFDYWGQGTLVTVSS VL: DIQMTQSPSSVSASVGDRVTITCRASQGISSWLAWYQQKPGNAPKLLIYAAFSLQSGVPSRFSGSGSGTDFTLTISSLQPEDFATYYCQQANNFPWTFGQGTKVEIKR
1.8	4.5			H2bM21234N (antibody, V domains shown) VH: QVQLQESGPGLVKPSETLSLTCTVTGGSISRNYWSWIRQPPGKGLEWIGYIYYSGSIDYNPSLKSRVTISVDTSKNQFSLKLSSMTAADTAVYYCARDRWNWKYGMDVWGQGTTVIVSS VL: EIVLTQSPGTLSLSPGERATLSCRASQTVRNNYLAWYHQKPGQAPRLLIYGASSRATGIPDRFSGSGSGTDFTLTISRLEPEDFTVYYCHQYGNSPWTFGQGTKMEIKR
> 170	> 16			H2aM25695N (antibody, V domains shown) VH: QVQLQESGPGLVKPSETLSLTCTVTGGSISRNYWSWIRQPPGKGLEWIGYIYYSGSINYNPSLKSRVTISVDMSKNQFSLKLNSVTAADTAVYYCARDRWNWKYGMDVWGQGTTVIVSS VL: EIVLTQSPGTLSLSPGERATLSCRASQTVRNSYLAWYHQKPGQAPRLLIYGASSRATGIPDRFSGSGSGTDFTLTISRLEPEDFAVYYCQQYGSSYWTFGQGTKMEIKR
2.6	4.9			H1H27760P2-N297Q (antibody, V domains shown) VH: EVQLVESGGGLVQPGRSLRLSCAASGFTFDAYAMHWVRQAPGKGLEWVSGISWNSGSIGYADSVKGRFTISRDNAKNSLYLQMNSLREEDTALYYCAKDKILELYYYGMDVWGQGTTVTVSS VL: not shown
> 20	3.7			H1M21231N (antibody, V domains shown) VH: EVQLVESGGGLVQPGGSLRLSCAASGFTFSDHYMDWVRQAPGKGLEWVGRTRNKANSHTTEYTASVTGRFTISRDDSRNSLYLQMNSLKTEDTAVYYCVRAGIIGTLFDYWGQGTLVTVSS VL: DIQMTQFPSSLSASVGDRVTITCRASQSISSFLNWFQQKPGKAPKFLIYAASSLQSGVPSRFSGSGSGTDFTLTISSLQPEDFATYYCQQSYSSPPITFGQGTRLEIKR
> 100				H2aM21235N (antibody, V domains shown) VH: EVQLVESGGGLVQPGGSLRLSCAASGFTFSDHYMDWVRQAPGKGLEWVGRTRNKANSYTTEYAASVSGRFTISRDDSKNSLYLQMNSLKTEDTAVYYCTRAGIIGTLFDYWGQGTLVTVSS VL: DIQMTQSPSSLSASVGDRVTITCRASQIIGRYLNWFQQKPGKVPKLLIYAASSLQRGVPSRFSGSGSGTDFTLTISSLQPEDFATYYCQQSYNTPPITFGQGTRLEIKR
> 100	3.1			H2aM21228N (antibody, V domains shown) VH: VQLVESGGGLVQPGGSLRLSCAASGFTFSDHYMDWVRQAPGKGLEWVGRTRNKANSHTTEYAASVSGRFTISRDDSKNSLYLQMNSLKTEDTAVYYCTRAGIIGTLFDYWGQGTLVTVSS VL: not shown
	5.5			H1H27734P-N297Q (antibody, V domains shown) VH: EVQLVESRGGLVQPGGSLRLSCAASGFTFSSYAMSWVRQAPGKGLEWVSAISGSGGSTFYADSVKGRFTISRDNSKNTVYLQMNSLRAEDTAVYYCAKALVLRFLEWLGDYWGQGTLVTVSS VL: DIQMTQSPSTLSASVGDRVTITCRASQSISSWLAWFQQKPGKAPKLLIYKASSLESGVPSRFSGSGSGTEFTLTISSLQPDDFATYYCQQYKSYWTFGQGTKVEIKR
> 100				H1H27756P-N297Q (antibody, V domains shown) VH: QVQLVESGGGVVQPGRSLRLSCAASGFTFSNYDMHWVRQAPGKGLEWMAVISYDGINKYYADSVKGRFTISRDNSKNTLYLQMNSLRAEDTAVYYCAKGTYSWYFDLWGRGTLVTVSS VL: not shown
